Where a chain is given by its changes, count along the chain named.

Data set [1] deals with the molecule itself. Nature of the data set: gel chromatography, HiPrep Sephacryl S-200, high protein concentrations (self-association). The text has this:
(§1) The wild-type fluorescent proteins have a tendency to self-aggregate and form tetramers. Among the limited number of new FPs that we so far have analyzed, no monomeric variant has been observed, but the tendency to self-aggregate appears to vary among individual variants. In order to generate a pure monomeric variant, which would be advantageous for certain applications, the protein R-5 (SEQ ID NO: 79) was subjected to limited mutagenesis after extensive 3-D modelling. Three amino acid residues were chosen as suitable candidates for mutagenesis, and three mutants with single, double and triple mutations were constructed and custom made by an external laboratory. After expression in E. coli and purification their aggregation state were analyzed by gel-chromatography on a HiPrep Sephacryl S-200 column. The conditions used (i.e. high protein concentrations) were chosen to promote aggregation, and EGFP, which is a weak forming dimer, did elute as a peak with an apparent molecular weight of ˜60 kDa, i.e. as a dimer.

Data set [2] deals with the molecule itself. Nature of the data set: gel chromatography, HiPrep Sephacryl S-200, high protein concentrations chosen to promote aggregation (self-association).
Excerpt: as §1

B1: double mutant of R-5 (Mut B) (other)
chain: MSLPATHDLHISGSINGHEFDLEGSGKGNAKEGYQELHLKSNKGDLSFSPWILVPNIGYGFYQYLPFPDGAMSPYQAAMHDGSGYVMHRSMQFEDGAMLHSDHRYIYKGNHIKGEFRLKGSGFPADGPVMTNSLTAADWCVDKLLYPNDNTIIGKFDWTYTTTSGKRYQSDVQTTVTFGKPIAADILKKQPMFVFRKVELKHTKTELNFKQWQKAFQDIA
notes: Expressed in E. coli and purified; Eluted as a dimer; also called dimeric mutant
On to B1, for which the binding result in data set [1] was “binds”.

B2: triple mutant of R-5 (Mut C) (other)
chain: B1 chain with D157K
notes: Expressed in E. coli and purified; Eluted as a monomer; also called R-5C; monomeric mutant
Regarding B2, the binding result in data set [2] is “no binding”.

These data come from patent US20090286314A1 (Innovent, published 2009).
